The values that follow come from patent US20150238641A1 (BRITISH COLUMBIA CANCER AGENCY BRANCH, published 2015).

Values joined by “and” are separate entries in the source; they are usually repeats but may differ in a detail not shown here. Identical values can stand only once. Where no end group is shown, it is not given here. [ ]: non-standard residue; d: D form. The star is where a group is joined. DOTA = O=C(O)CN1CCN(CC(=O)O)CCN(CC(=O)*)CCN(CC(=O)O)CC1; Hyp = O=C(O)[C@@H]1C[C@@H](O)CN1; Cha = N[C@@H](CC1CCCCC1)C(=O)O; Ahx = NCCCCCC(=O)O

Experiment [1] deals with T1, human bradykinin B1 receptor (human, UniProt P46663 1-353).
T1 construct: whole, on cells; Assays were run on cell membrane preparations (50 ug/well), not on intact cells; HEK293T::GFP::hB1R membranes appear only in the saturation assay; also called hB1R; BDKRB1
T1 sequence (looked up): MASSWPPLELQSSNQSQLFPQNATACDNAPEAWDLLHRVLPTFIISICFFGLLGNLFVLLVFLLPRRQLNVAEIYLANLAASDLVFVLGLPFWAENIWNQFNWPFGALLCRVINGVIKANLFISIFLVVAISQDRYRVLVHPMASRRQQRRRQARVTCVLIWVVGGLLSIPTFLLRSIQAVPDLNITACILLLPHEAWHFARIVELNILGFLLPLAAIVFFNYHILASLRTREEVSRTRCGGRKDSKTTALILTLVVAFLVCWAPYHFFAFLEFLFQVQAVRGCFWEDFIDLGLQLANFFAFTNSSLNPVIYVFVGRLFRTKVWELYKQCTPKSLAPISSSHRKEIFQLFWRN
In words: competitive radioligand binding; hot ligand BK-ANT-ARC 4.6 nM; CHO-K1 hB1R membranes. As for the experimental part:
(§1) Competitive Binding Assays: Assays were performed using 96-well MultiScreenₘₛ with glass fiber filter and PVDF support obtained from Millipore Corp, Billerica, Mass. (cat. no. MSFB N6B, lot no. R8AN42424). Wells of the MultiScreen plate were pre-soaked with 0.5% of cold Poly(ethyleneimine) (PEI) (cat. no. P3143, Sigma-Aldrich, St. Louis, Mo.) for 30 minutes. Afterward, wells were washed once with 50 mM of Tris-HCl pH 7.4. Total volume per wells was 200 μL. […] The MultiScreen plate was then incubated at 27° C. for 15 minutes with agitation at 300 rpm. The assay was stopped by suctioning the reaction solution through the bottom PVDF membrane filter and discarded. The membranes were washed 7x with 150 μL/well of cold 50 mM Tris-HCl pH 7.4. Radioactivity was counted using 1450 MicroBeta TriLux—Microplate Scintillation and Luminescence Counter (Perkin Elmer Inc., Shelton, Conn.).

The target in experiment [2] is T1, human bradykinin B1 receptor. In words: assay not described at this place; competitive binding presumed.
Experiment [3] has the same target. In words: average Ki of the competitive radioligand binding assays on hB1R membranes. As for the experimental part:
as §1

The target is the same in experiment [4]. As to the kind of experiment: saturation radioligand binding, membranes of CHO-K1::hB1R cells. Here is the method:
(§2) Assays were done using 96-well MultiScreenHTS with glass fiber filter and PVDF support obtained from Millipore Corp, Billerica, Mass. (cat. no. MSFB N6B, lot no. R8AN42424). Wells of the MultiScreen plate were pre-soaked with 0.5% of cold Poly(ethyleneimine) (PEI) (cat. no. P3143, Sigma-Aldrich, St. Louis, Mo.) for 30 minutes. Afterward, wells were washed once with 50 mM of Tris-HCl pH 7.4. Total volume per wells was 200 μL. […] The assay buffer contained 50 mM of Tris-HCl pH 7.4 and 5 mM of MgCl₂. The Multiscreen plate was incubated at 27° C. for 15 minutes. The assay was stopped by suctioning the reaction solution through the PVDF membrane filter, and washing the filter with ice cold 50 mM Tris-HCl pH 7.4. Scintillation fluid was added to each well, and the radioactivity was measured using a MicroBeta Trilux Microplate Scintillation and Luminescence Counter (Perkin Elmer Inc., Shelton, Conn.). Graphpad Prism 5 was used to calculate the affinity constant (Kd) and the receptor concentration (Bmax).

For experiment [5] the target is unchanged. In words: saturation radioligand binding, membranes of HEK293T::GFP::hB1R cells. As for the experimental part: as §2
For experiment [6] the target is unchanged. As to the kind of experiment: saturation radioligand binding, CHO-K1::hB1R against HEK293T::GFP::hB1R membranes. Here is the method:
as §2

For experiment [7] the target is unchanged. In words: competitive radioligand binding; hot ligand BK-ANT-ARC 12.5 nM; CHO-K1 hB1R membranes. Here is the method:
as §1

Experiment [8] has the same target. As to the kind of experiment: competitive radioligand binding; hot ligand BK-AG-ARC 12.5 nM; CHO-K1 hB1R membranes. As for the experimental part:
as §1

Experiment [9] shares this target. In words: average Ki of the competitive radioligand binding assays on hB1R membranes (single assay). Here is the method: as §1
Experiment [10] shares this target. In words: competitive radioligand binding; hot ligand BK-ANT-ARC 4.5 nM; CHO-K1 hB1R membranes. Here is the method:
as §1

B1: H-Lys-Arg-Pro-Pro-Gly-Phe-Ser-Pro-Leu-OH (BK-ANT, Bachem H-2582) (peptide)
peptide: H-KRPPGFSPL-OH
notes: Unlabelled control B1R antagonist bought from Bachem; also called Lys[Leu^8]-des-Arg^9-BK; [Leu^9,des-Arg^10]kallidin
In turn, B1 yielded an inhibitory constant (Ki) in [1] of 0.49 nM. This counts as sub-nanomolar.

In the case of {DOTA-Ahx}-KRPPGFSPL (also: Ga complex of DOTA (natGa in assays, 68Ga in vivo), also called P03083) [Peptide 4: Ga-DOTA-Ahx-Lys-Arg-Pro-Pro-Gly-Phe-Ser-Pro-Leu], the Ki was 2.47 nM and 3.57 nM and 2.23 nM and 1.93 nM in experiment [1]; 12.4 nM in experiment [2]; 2.55 nM in experiment [3].

B2: [3,4-prolyl-3,4-3H(N)] [Leu^9, Des-Arg^10]Kallidin (peptide)
peptide: KRPPGFSPL
modifications: also: 3,4-prolyl-3,4-3H(N) tritium label on proline
notes: Radioligand from American Radiolabeled Chemicals (ART1609) or Perkin Elmer (NET1096250UC); also called BK-ANT-ARC; BK-ANT-PE
Regarding B2, the Kd in [4] turned out to be 0.574 nM; in [5], 3.46 nM. Moreover, the “fold lower Kd in CHO-K1::hB1R cells than in HEK293T::GFP::hB1R cells” value in experiment [6] turned out to be 6 fold.

In the case of KRPXGXSPL (N-terminal Ga-DOTA-Ahx-; Hyp at position 4; Cha at position 6) [Peptide 10: Ga-DOTA-Ahx-Lys-Arg-Pro-Hyp-Gly-Cha-Ser-Pro-Leu], the Ki is 22.3 nM and 29 nM and 32 nM in experiment [1]; 27.8 nM in [3].

B3: Peptide 1: D-Pra-Ahx-Lys-Arg-Pro-Hyp-Gly-Cha-Ser-Pro-(D-Phe) (peptide)
peptide: KRPXGXSPF
modifications: N-terminal D-Pra-Ahx- (D-propargylglycine, 6-aminohexanoic acid); Hyp (hydroxyproline) at position 4; Cha (beta-cyclohexylalanine) at position 6; D-Phe at position 9
notes: Agonist-derived probe
For B3, the Ki in experiment [7] was 74.6 nM; in experiment [3] it was 32.2 nM; in [8], 10.9 nM.

B4: Peptide 12: Ga-DOTA-Ahx-Lys-Arg-Pro-Hyp-Gly-Cha-Ser-Pro-(D-Phe) (peptide)
peptide: KRPXGXSPF
modifications: N-terminal Ga-DOTA-Ahx-; Hyp at position 4; Cha at position 6; D-Phe at position 9
notes: 68Ga-labelled in vivo
Regarding B4, the Ki in [1] was 19.7 nM and 29.1 nM and 27.5 nM; in [3], 25.4 nM.

B5: Peptide 2: DTPA-Ahx-Lys-Arg-Pro-Hyp-Gly-Cha-Ser-Pro-(D-Phe) (peptide)
peptide: KRPXGXSPF
modifications: N-terminal DTPA-Ahx- (printed 'DPA-Ahx' in Table 4); Hyp at position 4; Cha at position 6; D-Phe at position 9
As to B5, the Ki in experiment [8] and in experiment [9] was 131 nM throughout.

B6: Peptide 3: Ga-DOTA-PEG2-Lys-Arg-Pro-Hyp-Gly-Cha-Ser-Pro-Leu (peptide)
peptide: KRPXGXSPL
modifications: N-terminal Ga-DOTA-PEG2- (PEG2 = 3-[2-(2-aminoethoxyl)ethoxy]propanoic acid); Hyp at position 4; Cha at position 6
notes: 68Ga-labelled in the in vivo imaging; also called Ga-68 Peptide 3
Consider B6, for which the Ki was 13.3 nM and 17.1 nM and 17.6 nM and 16 nM in experiment [1]; 16 nM in experiment [3].

For {DOTA}-GGKRP[Hyp]G[Cha]SPL (also: Ga loaded in DOTA, 68Ga-labelled in vivo) [Peptide 8: Ga-DOTA-Gly-Gly-Lys-Arg-Pro-Hyp-Gly-Cha-Ser-Pro-Leu], the Ki is 13.5 nM in [1]; 11.4 nM in experiment [3]; 8.63 nM and 12.1 nM in experiment [10].

Usually Ki stands for the dissociation constant of the complex between target and ligand, obtained from inhibition or displacement. Higher therefore signals lower affinity. Broadly, the Kd is a measure of binding affinity in units of concentration.
